Source: the supplement of paper PMC10567573

B1: DLC1 (parent)
chain: HVTHWMGQPFNSDDRNTACHHGLV
B2: TMEM120A (parent)
chain: YQSFVQFLQYYYQSGCLYRLRALG

Variants of: B1
Experiment: protein stability index of a GFP-peptide fusion (GPS, HEK-293T) (PSI 1-6); higher = more stable
Details: c terminus: a fixed tail appended
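Also: lentivirally expressed fusions sorted by FACS into six bins by GFP to DsRed ratio, PSI derived from sequencing read proportions per bin multiplied by bin number.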

| Variant | protein stability index |
| --- | --- |
| HVTHWMGQPFNDDDRNTACHHGLV [S12D] | 2.62 |
| HVTHWMGQPFNMDDRNTACHHGLV [S12M] | 2.61 |
| HVTHWMGQPFNSDDRNTMCHHGLV [A18M] | 2.11 |
| HVTHWMGQPFNSDDRNTQCHHGLV [A18Q] | 2.47 |
| HVTHWMGQPFNSDDRNTKCHHGLV [A18K] | 1.94 |
| HVTHWMGQPFNSDDRNTECHHGLV [A18E] | 2.53 |
| HVTHWMGQPFNSDDRNTACHRGLV [H21R] | 2.26 |
| HVTHWMGQPFNSDDRNTACHYGLV [H21Y] | 1.85 |
| HVVHWMGQPFNSDDRNTACHHGLV [T3V] | 2.78 |
| HVYHWMGQPFNSDDRNTACHHGLV [T3Y] | 1.91 |
| HVTHMMGQPFNSDDRNTACHHGLV [W5M] | 3.04 |
| HVTHWMGQPFNSDDRNTACCHGLV [H20C] | 2.25 |
| HVTHWMGQPFNSDFRNTACHHGLV [D14F] | 2.35 |
| HVTEWMGQPFNSDDRNTACHHGLV [H4E] | 2.63 |
| AVTHWMGQPFNSDDRNTACHHGLV [H1A] | 2.68 |
| HETHWMGQPFNSDDRNTACHHGLV [V2E] | 3.78 |

Variants of: B2
Experiment: as above
Details: c terminus: a fixed tail appended

| Variant | protein stability index |
| --- | --- |
| YQSFVQFLQYYYQSGCLYRLRALW [G24W] | 2.13 |
| YQSFVQFLQYYYQSGCLYRLRALC [G24C] | 1.89 |
| YQSFVQFLQYYYQSGCLYRLRALK [G24K] | 3.01 |
| YQSFVQFLQYYYQSGCLYRLRALN [G24N] | 1.07 |
| YQSFVQFLQYYYQSGCLYRLRALF [G24F] | 2.43 |
| YQSFVQFLQYYYQSGCLYRLRALY [G24Y] | 2.12 |
| YQSFVQFLQYYYQSGCLYRLRALR [G24R] | 2.65 |
| YQSFVQFLQYYYQSGCLYRLRALL [G24L] | 2.97 |
| YQSFVQFLQYYYQSGCLYRLRALA [G24A] | 1.65 |
| YQSFVQFLQYYYQSGCLYRLRALM [G24M] | 2.92 |
| YQSFVQFLQYYYQSGCLYRLRALP [G24P] | 2.47 |
| YQSFVQFLQYYYQSGCLYRLRALT [G24T] | 2.27 |
| YQSFVQFLQYYYQSGCLYRLRALQ [G24Q] | 3.31 |
| YQSFVQFLQYYYQSGCLYKLRALG [R19K] | 3.35 |
| YQSFVQFLQYYYQSGCLYLLRALG [R19L] | 1.22 |
| YQSFVQFLQYYYQSGCLYCLRALG [R19C] | 2.93 |
| YQSFVQFLQYYYQSGCLYELRALG [R19E] | 2.1 |
| YQSFVQFLQYYYQSGCLYVLRALG [R19V] | 1.95 |
| YQSFVQFLQYYYQSGCLYWLRALG [R19W] | 3.14 |
| YQSFVQFLQYYYQSGCLYMLRALG [R19M] | 1.97 |
| YQSFVQFLQYYYQSGCLYTLRALG [R19T] | 1.74 |
| YQSFVQFLQYYYQSGCLYSLRALG [R19S] | 3.54 |
| YQSFVQFLQYYYQSGCLYYLRALG [R19Y] | 2.66 |
| YQSFVQFLQYYYQSGCLYILRALG [R19I] | 1.84 |
| YQSFVQFLQYYYQSGCLYPLRALG [R19P] | 2.84 |
| YQSFVQFLQYYYQSGCLYHLRALG [R19H] | 3.88 |

| Variant | protein stability index |
| --- | --- |
| YQSFVQFLQYYYQSGCLYGLRALG [R19G] | 1.88 |
| YQSFVQFLQYYYQSGCLYALRALG [R19A] | 2.88 |
| YQSFVQFLQYYYQSGCLYRLRILG [A22I] | 3.44 |
| YQSFVQFLQYYYQSGCLYRLRFLG [A22F] | 1.59 |
| YQSFVQFLQYYYQSGCLYRLRYLG [A22Y] | 2.13 |
| YQSFVQFLQYYYQSGCLYRLRHLG [A22H] | 4.48 |
| YQSFVQFLQYYYQSGCLYRLRKLG [A22K] | 1.96 |
| YQSFVQFLQYYYQSGCLYRLRSLG [A22S] | 2.32 |
| YQSFVQFLQYYYQSGCLYRLRLLG [A22L] | 3.17 |
| YQSFVQFLQYYYQSGCLYRLRTLG [A22T] | 3.45 |
| YQSFVQFLQYYYQSGCLKRLRALG [Y18K] | 1.86 |
| YQSFVQFLQYYYQSGCLIRLRALG [Y18I] | 2.96 |
| YQSFVQFLQYYYQSGCLLRLRALG [Y18L] | 4.02 |
| YQSFVQFLQYYYQSGCLERLRALG [Y18E] | 2.07 |
| YQSFVQFLQYYYQSGCLRRLRALG [Y18R] | 1.85 |
| YQSFVQFLQYYYQSGCLTRLRALG [Y18T] | 1.9 |
| YQSFVQFLQYYYQSGCLARLRALG [Y18A] | 1.84 |
| YQSFVQFLQYYYQSGCLNRLRALG [Y18N] | 1.79 |
| YQSFVQFLQYYYQSGCLPRLRALG [Y18P] | 2.45 |
| YQSFVQFLQYYYQSGNLYRLRALG [C16N] | 1.04 |
| YQSFVQFLQYYYQSGRLYRLRALG [C16R] | 2.24 |
| YQSFVQFLQYYYQSGKLYRLRALG [C16K] | 1.72 |
| YQSFVQFLQYYYQSGQLYRLRALG [C16Q] | 2.49 |
| YQSFVQFLQYYYQSGTLYRLRALG [C16T] | 2.12 |
| YQSFVQFLQYYYQSGCDYRLRALG [L17D] | 3.82 |
| YQSFVQFLQYYYQSGCFYRLRALG [L17F] | 2.63 |

| Variant | protein stability index |
| --- | --- |
| YQSFVQFLQYYYQSGCTYRLRALG [L17T] | 1.6 |
| YQSFVQFLQYYYQSGCCYRLRALG [L17C] | 3.92 |
| YQSFVQFLQYYYQSGCMYRLRALG [L17M] | 2.14 |
| YQSFVQFLQYYYQSGCWYRLRALG [L17W] | 3.23 |
| YQSFVQFLQYYYQSGCRYRLRALG [L17R] | 4.75 |
| YQSFVQFLQYYYQSGCLYRLYALG [R21Y] | 2.7 |
| YQSFVQFLQYYYQSGCLYRLDALG [R21D] | 2.28 |
| YQSFVQFLQYYYQSGCLYRLQALG [R21Q] | 2.76 |
| YQSFVQFLQYYYQSGCLYRLKALG [R21K] | 2.17 |
| YQSFVQFLQYYYQSGCLYRLNALG [R21N] | 3.14 |
| YQSFVQFLQYYYQSGCLYRLFALG [R21F] | 1.58 |
| YQSFVQFLQYYYQSGCLYRQRALG [L20Q] | 4.03 |
| YQSFVQFLQYYYQSGCLYRERALG [L20E] | 2.34 |
| YQSFVQFLQYYYQSGCLYRDRALG [L20D] | 2.38 |
| YQSFVQFLQYYYQSGCLYRVRALG [L20V] | 3.1 |
| YQSFVQFLQYYYQSGCLYRMRALG [L20M] | 2.47 |
| YQSFVQFLQYYYQSGCLYRKRALG [L20K] | 3.64 |
| YQSFVQFLQYYYQSGCLYRARALG [L20A] | 1.85 |
| YQSFVQFLQYYYQSGCLYRWRALG [L20W] | 2.31 |
| YQSFVQFLQYYYQSGCLYRRRALG [L20R] | 1.47 |
| YQSFVQFLQYYYQSGCLYRLRAGG [L23G] | 3.3 |
| YQSFVQFLQYYYQSGCLYRLRAFG [L23F] | 1.77 |
| YQSFVQFLQYYYQSGCLYRLRACG [L23C] | 3.82 |
| YQSFVQFLQYYYQSGCLYRLRAYG [L23Y] | 2.61 |
| YQSFVQFLQYYYQSGCLYRLRASG [L23S] | 2.6 |
| YQSFVQFLQYYYQSGCLYRLRAPG [L23P] | 2.6 |
